# Measurements reported in IntAct's records for PubMed 29039417.
# B1: Protein PTHB1 (Homo sapiens), Q3SYG4 (parent)
# chain: MSLFKARDWWSTILGDKEEFDQGCLCLANVDNSGNGQDKIIVGSFMGYLRIFSPHPAKTGDGAQAEDLLLEVDLRDPVLQVEVGKFVSGTEMLHLAVLHSRKLCVYSVSGTLGNVEHGNQCQMKLMYEHNLQRTACNMTYGSFGGVKGRDLICIQSMDGMLMVFEQESYAFGRFLPGFLLPGPLAYSSRTDSFLTVSSCQQVESYKYQVLAFATDADKRQETEQQKLGSGKRLVVDWTLNIGEQALDICIVSFNQSASSVFVLGERNFFCLKDNGQIRFMKKLDWSPSCFLPYCSVSEGTINTLIGNHNNMLHIYQDVTLKWATQLPHIPVAVRVGCLHDLKGVIVTLSDDGHLQCSYLGTDPSLFQAPNVQSRELNYDELDVEMKELQKIIKDVNKSQGVWPMTEREDDLNVSVVVSPNFDSVSQATDVEVGTDLVPSVTVKVTLQNRVILQKAKLSVYVQPPLELTCDQFTFEFMTPDLTRTVSFSVYLKRSYTPSELEGNAVVSYSRPTDRNPDGIPRVIQCKFRLPLKLICLPGQPSKTASHKITIDTNKSPVSLLSLFPGFASQSDDDQVNVMGFHFLGGARITVLASKTSQRYRIQSEQFEDLWLITNELILRLQEYFEKQGVKDFACSFSGSIPLQEYFELIDHHFELRINGEKLEELLSERAVQFRAIQRRLLARFKDKTPAPLQHLDTLLDGTYKQVIALADAVEENQGNLFQSFTRLKSATHLVILLIALWQKLSADQVAILEAAFLPLQEDTQELGWEETVDAAISHLLKTCLSKSSKEQALNLNSQLNIPKDTSQLKKHITLLCDRLSKGGRLCLSTDAAAPQTMVMPGGCTTIPESDLEERSVEQDSTELFTNHRHLTAETPRPEVSPLQGVSE
# partner: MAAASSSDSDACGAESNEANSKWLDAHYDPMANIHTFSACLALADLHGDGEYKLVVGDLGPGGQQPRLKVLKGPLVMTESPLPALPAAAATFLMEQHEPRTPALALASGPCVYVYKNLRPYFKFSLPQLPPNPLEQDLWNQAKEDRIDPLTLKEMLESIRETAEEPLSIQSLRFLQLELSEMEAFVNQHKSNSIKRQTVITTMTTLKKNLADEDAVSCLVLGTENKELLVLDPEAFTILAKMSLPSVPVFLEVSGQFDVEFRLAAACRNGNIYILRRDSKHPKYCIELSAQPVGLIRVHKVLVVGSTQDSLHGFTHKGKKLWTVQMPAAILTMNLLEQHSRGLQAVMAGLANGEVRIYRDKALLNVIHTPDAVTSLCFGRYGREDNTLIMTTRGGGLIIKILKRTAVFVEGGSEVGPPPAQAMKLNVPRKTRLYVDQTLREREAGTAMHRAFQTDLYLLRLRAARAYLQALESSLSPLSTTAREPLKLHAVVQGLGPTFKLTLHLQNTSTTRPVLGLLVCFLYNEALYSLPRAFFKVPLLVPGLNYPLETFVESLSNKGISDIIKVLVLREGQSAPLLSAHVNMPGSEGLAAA
# Variants of: B1
# Details: with bbs1_human BBS1, Q8NFJ9
row,Variant,effect of a mutation on the interaction
1,H778A,with no effect
2,D859E,with no effect
3,F563K,with no effect
4,F864E,with no effect
5,Q791E,with no effect
6,L784A,with no effect
7,Q742E,with no effect
8,D480A,with no effect
9,D650A,with no effect
10,I588E,with no effect
11,S593E,with no effect
12,S486E,with no effect
13,L536E,with no effect
14,V629E,with no effect
15,A872K,with no effect
16,S723K,with no effect
17,P834K,with no effect
18,P834E,with no effect
19,G842E,with no effect
20,G842K,with no effect
21,T482E,with no effect
22,D513K,with no effect
23,V522A,with no effect
24,V522K,with no effect

row,Variant,effect of a mutation on the interaction
1,T512E,with no effect
2,F421K,with no effect
3,A682K,with no effect
4,L827A,with no effect
5,L827E,with no effect
6,V413E,with no effect
7,E668A,with no effect
8,R656A,with no effect
9,T763K,with no effect
10,L446A,with no effect
11,V575K,with no effect
12,S849A,with no effect
13,L533K,with no effect
14,G884E,with no effect
15,Q643A,with no effect
16,A633K,with no effect
17,L531A,with no effect
18,F527E,with no effect
19,L648K,with no effect
20,L757K,with no effect
21,L757A,with no effect
22,T829K,with no effect
23,Q748K,with no effect
24,H694K,with no effect

row,Variant,effect of a mutation on the interaction
1,L529A,with no effect
2,P530A,with no effect
3,H869E,with no effect
4,T613I,disrupting interaction strength
5,T595A,with no effect
6,S637A,with no effect
7,D817K,with no effect
8,E887K,with no effect
9,G659A,with no effect
10,N866E,with no effect
11,Q835K,with no effect
12,A754K,with no effect
13,E852A,with no effect
14,T836A,with no effect
15,F653K,with no effect
16,R598S,disrupting interaction strength
17,R854K,with no effect
18,L825E,with no effect
19,V856A,with no effect
20,L665E,with no effect
21,L698E,with no effect
22,E466A,with no effect
23,P464E,with no effect
24,R669E,with no effect

row,Variant,effect of a mutation on the interaction
1,R674A,with no effect
2,S425A,with no effect
3,Q447A,with no effect
4,L740E,with no effect
5,L740K,with no effect
6,I846A,with no effect
7,N614A,with no effect
8,T771E,with no effect
9,S777E,with no effect
10,I735A,with no effect
11,I735K,disrupting interaction strength
12,I735E,with no effect
13,A592E,with no effect
14,E607A,with no effect
15,E753A,with no effect
16,D762K,with no effect
17,L780A,with no effect
18,R726A,with no effect
19,Q602E,with no effect
20,Q602K,with no effect
21,P516A,with no effect
22,D608E,with no effect
23,L457E,with no effect
24,Q605A,with no effect

row,Variant,effect of a mutation on the interaction
1,Q471K,with no effect
2,C816E,with no effect
3,V706E,with no effect
4,G823E,with no effect
5,C843K,with no effect
6,L491A,with no effect
7,P463A,with no effect
8,P463E,with no effect
9,N420E,with no effect
10,F724A,with no effect
11,V440K,with no effect
12,P847E,with no effect
13,L814E,with no effect
14,L851E,with no effect
15,T473E,with no effect
16,K743E,with no effect
17,R510A,with no effect
18,V557K,with no effect
19,N448K,with no effect
20,L863A,with no effect
21,L863K,with no effect
22,T445E,with no effect
23,E664K,with no effect
24,V749E,disrupting interaction strength

row,Variant,effect of a mutation on the interaction
1,A586E,with no effect
2,E644A,with no effect
3,L666K,with no effect
4,L766A,with no effect
5,N719E,with no effect
6,S570E,with no effect
7,S570A,with no effect
8,Q524E,with no effect
9,E714A,with no effect
10,D470E,with no effect
11,M837V,disrupting interaction strength
12,R679K,with no effect
13,V879E,with no effect
14,V879A,with no effect
15,V879K,with no effect
16,L655E,with no effect
17,V442E,with no effect
18,V442K,with no effect
19,L720A,with no effect
20,S886E,with no effect
21,S788A,with no effect
22,K492E,with no effect
23,L481E,with no effect
24,P564E,with no effect

row,Variant,effect of a mutation on the interaction
1,S555E,with no effect
2,L799K,with no effect
3,L799E,with no effect
4,L752K,with no effect
5,D410E,with no effect
6,F566K,with no effect
7,G579E,with no effect
8,E499K,with no effect
9,N796K,with no effect
10,Q883K,with no effect
11,V430A,with no effect
12,K594A,with no effect
13,Q597K,with no effect
14,P840A,with no effect
15,Q677A,with no effect
16,S488K,with no effect
17,S488E,with no effect
18,Y599A,with no effect
19,V461K,with no effect
20,S418K,with no effect
21,H546A,with no effect
22,S509A,with no effect
23,D696K,with no effect
24,V437A,with no effect

row,Variant,effect of a mutation on the interaction
1,G538A,with no effect
2,S414A,with no effect
3,P419E,with no effect
4,M477K,with no effect
5,N658A,with no effect
6,G767K,with no effect
7,P540A,with no effect
8,P540E,with no effect
9,N412E,with no effect
10,S880A,with no effect
11,S568K,with no effect
12,S568E,with no effect
13,T543A,with no effect
14,E857K,with no effect
15,V838A,with no effect
16,Q539K,with no effect
17,E475A,with no effect
